The target in experiment [1] is T1, HCMV gp34 ectodomain displayed on ExpiCHO cells (human cytomegalovirus (HCMV), UniProt P16809 24-182).
T1 construct: also called gp34-FLAG with a PDGFR anchor; not shown: C-terminal FLAG (M2) tag and PDGFR transmembrane domain
T1 sequence: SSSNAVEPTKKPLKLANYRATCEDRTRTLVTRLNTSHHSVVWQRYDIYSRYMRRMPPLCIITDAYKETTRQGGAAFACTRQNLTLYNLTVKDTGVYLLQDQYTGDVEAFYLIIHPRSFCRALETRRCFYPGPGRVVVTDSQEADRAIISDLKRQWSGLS
Put plainly: flow cytometry on gp34-transfected ExpiCHO cells, antibody-mFc at 10 ug/mL, anti-mouse Fcγ AF647. Background: In flow cytometry, cells or beads pass a laser one at a time.

For experiment [2], the target named is T2, human IgG1 Fc (no Fab arms) (human, UniProt P0DOX5 230-449 = IgG part).
T2 construct: also called huFc; hu-Fc
Put plainly: ELISA, human Fc coated, FLAG-tagged receptor titrated, anti-FLAG (M2)-HRP; curve assigned by paragraph 53 (top line at 10 ug/mL). (In an ELISA, binding on a coated surface is turned into a signal by an enzyme label.)

In experiment [3] the target is T2, human IgG1 Fc (no Fab arms). Nature of the experiment: ELISA, human Fc coated, FLAG-tagged receptor titrated, anti-FLAG (M2)-HRP; curve assigned by paragraph 53 (lower line at 10 ug/mL).

Where a chain is given by its changes, count along the chain named. In names and notes the source's numbering stands.

Experimental findings from patent US20250127885A1 (University of Texas, published 2025) are described below.

B1: anti-gp34 antibody 34-5 with murine IgG2a Fc (antibody, V domains shown)
VH: QVQLQQSGAELVRPGTSVKVSCKTSGYAFTNYLIEWVKQRPGQGLEWIGVINPGSGGTNYNEKFKGKATLTADKSSSTAYMQLSSLTSDDSAVYFCVLQVGRLAYWGQGTLVTVSA
VL: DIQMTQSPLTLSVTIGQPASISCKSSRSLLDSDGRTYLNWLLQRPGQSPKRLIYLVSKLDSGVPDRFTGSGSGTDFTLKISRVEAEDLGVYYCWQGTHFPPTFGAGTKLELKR
notes: Variable domains on human CL and human CH1 joined to murine IgG2a Fc; also called antibody-mFc; not shown: human CH1 region; murine IgG2a Fc (mFc)
Turning to B1, the binding result in experiment [1] was “binds”.

B2: anti-gp34 antibody 34-4 with murine IgG2a Fc (antibody, V domains shown)
VH: QVQLQQSGTVLARPGASVKMSCKASGYTFTAYWMHWVKQRPGQGLEWIGAIYPGNSDAGYNQKFKGKAKLTAVTSTSTAYMELSSLANEDSAVYYCTRWGNNSFWGQGTTLTVSS
VL: DIQMTQSPSSMYASLGERVTITCKASQDINSYLTWFQQKPGKSPKTLIYRANRLVDGVPSRFSGSGSGQDYSLTISTLEYEDMGIYYCLQYDEFPPTFGAGTKLELKR
notes: as for B1
As to B2, in experiment [1], the binding result was “binds”.

B3: soluble wild-type HCMV gp34 ectodomain (receptor)
chain: T1 sequence
notes: Prone to aggregation; SEC-purified for the ELISA; also called WT gp34; wild-type (WT) gp34; not shown: C-terminal FLAG (M2) tag and Strep tag
With B3, in experiment [2], the “EC50 (read off the curve)” value is roughly 0.1 µg/mL.

B4: soluble HCMV gp34 ectodomain with C150S (gp34-M) (receptor)
chain: T1 sequence with C127S
notes: also called gp34 C150S; Soluble gp34 C150S; not shown: C-terminal FLAG (M2) tag and single Strep tag
Consider B4, for which, in experiment [3], the “EC50 (read off the curve)” value was roughly 0.04 µg/mL.

B5: anti-gp34 antibody 34-2 with murine IgG2a Fc (antibody, V domains shown)
VH: QVQLQQSGTELVKPGASVKLSCTASGFNIKDTYMHWVKQRPEQGLEWIGRIDPASDDTKYDPKFQGKAAITADTSSNTAYLQLSSLTSEDTAVYYCSKDGYYAYWGQGTLVTVSA
VL: DIVMTQSPASLAVSLGQRATISCRASESVDSYGNSFMHWYQQKPGQPPKLLIYRASNLESGIPARFSGSGSRTDFTLTINPVEADDVATYYCQQSYEVPRTFGGGTKLEIKR
notes: as for B1
For B5, the binding result in experiment [1] is listed as “binds”.

In general, EC50 (read off the curve) refers to the concentration at which the effect is half-maximal. A high value points to a need for much substance.
